Results taken from patent US20120196763.

Assays:
[1] = biological target: T1, recombinant A. fumigatus ACP (acyl carrier protein), truncated form, pET30 fusion protein
T1 chain: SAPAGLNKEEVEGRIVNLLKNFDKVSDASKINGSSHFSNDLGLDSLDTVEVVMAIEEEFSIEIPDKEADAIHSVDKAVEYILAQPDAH

[2] = biological target: T2, recombinant C. albicans ACPe (CaO19.9975), pET30 fusion protein
T2 chain: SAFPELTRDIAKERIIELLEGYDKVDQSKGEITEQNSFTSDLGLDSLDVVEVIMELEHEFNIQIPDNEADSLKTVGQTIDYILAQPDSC

[3] = biological target: T3, recombinant C. albicans ACPg (CaO19.8439), pET30 fusion protein
T3 chain: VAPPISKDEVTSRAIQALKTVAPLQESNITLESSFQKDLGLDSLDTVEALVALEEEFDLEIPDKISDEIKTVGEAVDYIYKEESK

B1: recombinant C. albicans PPTB (CaO19.4812), expressed from pET43.1 (protein)
chain: MPKVGTVLGIGVDIVNSVRFERLLTAKSTSFGTRLSKRILHPEHELPLFQQMHSQRQAQYLTGSWAAKEALFKTLDLNSQKEFNFNQWYRFHDSNGKPFIWNDRYKLSDEEFHLSISHDDSLVIATVLRQKVYQI
- PPTB activity assay with ACP as substrate [1]: Assays for C. albicans PPTB activity using A. fumigatus ACP as a substrate gave a poor signal
- pantetheinylation of ACP with CoA-Bodipy TMR, SDS-PAGE gel under UV light [1]: ACPe and the A. fumigatus ACP were pantetheinylated weakly
- pantetheinylation of ACP with CoA-Bodipy TMR, SDS-PAGE gel under UV light [2]: ACPe and the A. fumigatus ACP were pantetheinylated weakly
- pantetheinylation of ACP with CoA-Bodipy TMR, SDS-PAGE gel under UV light [3]: The C. albicans PPTB pantetheinylated ACPg strongly

B2: recombinant A. fumigatus PPTB (phosphopantetheinyl transferase B), PPTB-NusA fusion protein (protein)
chain: MKLIPFPYPLNIGTDVVHLPRILRLINRPDYFHRFTRRILHEQEQRDFRTRFSLPPPSSGAEKTGLNPITPDMARWLAGRFAAKEAARKAAPAGASSLGWKDVIVRVGEADKGRPEIVYLDPMGCGETGGGRVGKLSISHDGDYVVATVLAAG
- labelling of ACP with CoA-Bodipy TMR, resolved on SDS-PAGE gel [1]: recombinant PPTB was able to label recombinant ACP (resolved on SDS-PAGE gel) in the presence of magnesium ions and CoA-Bodipy TMR
- pantetheinylation of ACP with CoA-Bodipy TMR, SDS-PAGE gel under UV light [1]: The A. fumigatus PPTB was able to pantetheinylate both A. fumigatus ACP and ACPg
- pantetheinylation of ACP with CoA-Bodipy TMR, SDS-PAGE gel under UV light [2]: whereas ACPe was pantetheinylated weakly
- pantetheinylation of ACP with CoA-Bodipy TMR, SDS-PAGE gel under UV light [3]: The A. fumigatus PPTB was able to pantetheinylate both A. fumigatus ACP and ACPg
